In this test the target is NKG2D ligands expressed on YAC-1 cells. Nature of the test: cell-based or functional assay.

B1: murine NKG2D-Fc fusion protein (IgG2a-IEGR-NKG2D construct) (Fc fusion, mouse, not shown: a dimerising Fc or GST)
chain: IEGRETFQPVLCNKEVPVSSREGYCGPCPNNWICHRNNCYQFFNEEKTWNQSQASCLSQNSSLLKIYSKEEQDFLKLVKSYHWMGLVQIPANGSWQWEDGSSLSYNQLTLVEIPKGSCAVYGSSFKAYTEDCANLNTYICMKRAV
As to B1, the ADCC by thioglycollate-elicited macrophages (percent of target cells) is 55% and the complement-dependent lysis of YAC-1 cells amounted to 80%.

These data come from patent publication US20110311535A1.
